According to patent publication US12551573B2, “Compositions and methods for the targeting of PCSK9” (Scribe Therapeutics Inc., priority 2022, dated 2026):

B1: DOMAIN_21583 (protein, listed as Sarcophilus harrisii)
chain: ALESVTFQDVAVNFTHEEWGHLKPAQKDLYREVMMENYQNFVSLGLPFSKPHVISQLEKGEAPWITEKASLVPRVSCQDFF
B2: DOMAIN_22278 (protein, listed as Pteropus vampyrus)
chain: KPEDVSFAEVAVYFSLDEWGYLWPAQRALYRDVMRETYGHFGELGFPGPKPALISWMEQESEAWSPAAQDPEEGESVGGAV
B3: DOMAIN_22375 (protein, listed as Tursiops truncatus)
chain: PQGCAISEDVFVYFSREEWVLLDEDQRLLYRDVMLENFALLASLGITSSRSYLVTQLEQGEEPWMPAQVDMTAATEKEAQK
B4: DOMAIN_25654 (protein)
chain: LWLPLTFEDIAIYFSEQEWQNLEAWQKDLYRNVMRANYEILVSLDDGLPKPELISHIEQGKELFWNLGETQKSGNIICSSA
modifications: Pteropus alecto
B5: DOMAIN_24446 (protein, listed as Propithecus coquereli)
chain: SQGLVSFKDVAVDFTQDEWQQLDPAQRTLYRDVMLENYSHLVSMGYPVSKPDVISKLEQGEDPWIIKRDISNWIYPDENQA
B6: DOMAIN_22454 (protein, listed as Monodelphis domestica)
chain: AQEVVTFKDVAVDFTREEWCLLSPPQKELYKEVMLENAQNLLSVGLPGPPEDVISYLKQRKDPWMLEQEGLRSCCPEGEIR
B7: DOMAIN_24615 (protein, listed as Colobus angolensis)
chain: TEGLVMFEDVAVYFSREEWGLLNVTQKGLYQDVMLENFALVSSLGLAPLRSPVFSQLENDEQLWVPSWVDETPVSRAEARR
B8: DOMAIN_22919 (protein, listed as Colobus angolensis)
chain: KPGTVSFADVAVYFSREEWGYLRPAQRALYRDVMRETYCHLGALGVGGSKPALISWVEEEAELWDPAARDPEVTKGLTETD
B9: DOMAIN_25565 (protein, listed as Muntiacus reevesi)
chain: LPLTFEDVAVYFSEQEWQNLEAWQKELYKQVMRANYEILLSLDNGLPKPELISWIEQGKELFKKWGESQQSRSIICSSADL
B10: DOMAIN_23281 (protein, listed as Colobus angolensis)
chain: CWGLLSFKDISMEFTWDEWQLLDSTQKYLYRDVILENYHNLISVGYHGTKPDLIFKLEQGEDPWIINAKISRQSRPDGWEE
B11: DOMAIN_25686 (protein, listed as Panthera pardus)
chain: PRVSLTFEDVAVLFTRDEWRKLGPSERNLYQDVMLENYSNLVSLGLLFSKPKVISLLQQGEDPWKVEKESPGGPSLGYKSS
B12: DOMAIN_22586 (protein)
chain: FQASVSFQDVTVEFSQEEWQHLGPVERTLYRDVMLENYSHLVSVGYCFTKPELIFTLEQGEDPWLLEKEKGFLSRNSPEDS
modifications: Nomascus leucogenys
B13: DOMAIN_25682 (protein, listed as Rhinopithecus bieti)
chain: PRLPLTFEDVAIYFSEQEWQDLEAWQKELYKHVMRSNYETLVSLDDGLPKPELISWIEHGGEPFRNWRESQKSRNIICSSS
B14: DOMAIN_23679 (protein, listed as Tupaia chinensis)
chain: MAFEDVAVYFSREEWELLDTAQRALYRHVMLENFALVASLGFSPSRPCVVIQLESGKEPWLHSGMDTTMSRHAHKRPSSGS
B15: DOMAIN_23454 (protein, listed as Carlito syrichta)
chain: GKALLSFEDVAMYFTREEWNHLDWAQKDLYRDVMLENYMNMVLLGFQFPKPEVICQLENWDEPWILDLPRAGNRKASSSAC
B16: DOMAIN_22527 (protein, listed as Tursiops truncatus)
chain: VQASLSFEDVAVHFTWEEWQLLDPSQKDLYRNVMWENYCNLVSVGYQTPKPDSFFQLEQGEPPWTVEGAGQSQTCPGTRAS
B17: DOMAIN_24838 (protein)
chain: FQASVSFKDVTVELTQEEWQQMGPLQRTLYRDVMLENYNNLVSVGSCIYKPELIFKLEQGEEPWLLEEEFSNQSYQVLEHY
modifications: Pteropus alecto
B18: DOMAIN_24204 (protein, listed as Propithecus coquereli)
chain: SLGSVSFKDVTVDFSREEWQQLDLAQKSLYRDVTLENYFNLISVGCQVPKPEVIFNLEQGGELCVLDGGLSCQNCSDGDIG
B19: DOMAIN_24903 (protein, listed as Ailuropoda melanoleuca)
chain: EMEPHSHAVPCQPSMSFKDVAVTFTQEEWGQLNLAQRRLYRNVTLETWSHLVSLGLLLSKPDVISWLEQGQDPWRAEQGPP
B20: DOMAIN_23113 (protein, listed as Camelus ferus)
chain: GSVCEVSVSFEDVTVDFSREEWQHLDPAQRRLYWDVTLENYSHLCSVGYQVPKPEVIFKLEQGEGPWTLEEETPHQSCSGA
B21: DOMAIN_22917 (protein, listed as Cervus elaphus)
chain: MAFEDVAVHFSQEEWGLLDTAQRSLYRRVMLENFALLASLGLSVSRPHVVTQLERGEEPWVLSGVDVTLPRDAQRRPHRGS
B22: DOMAIN_23856 (protein, listed as Erinaceus europaeus)
chain: SLGMVSFDDVMVTFSLEEWQLLSTSQRTLYRTVMLDTYSSLAALGHCAVKPGVIIKLEQGAEPWMGAQAPPRSLSDPCGPS
B23: DOMAIN_25235 (protein, listed as Oryctolagus cuniculus)
chain: LPGLMAFEDVAVYFSQEEWGLLDAVQRALYRHVMLENFALVASLGLSASPPHVVIQLQRGEEPWVPSGLDMTSARNGHRRP
B24: DOMAIN_23093 (protein, listed as Propithecus coquereli)
chain: ESLTLEDVAVEFTWEEWQLLGPAQKDLYWDVMLENYNHLVSLGYQASKPDALSKLAQGEEPCVIEGKIQNRNCPGIRKADS
B25: DOMAIN_22459 (protein, listed as Monodelphis domestica)
chain: SQGPVKFEDVAIYLWKEEWELMDSTQKRLYRQVMLETYENVLSVGTPHDKPAMIVHLEQGETAWSPALQRPGKEKGRLHGH
B26: DOMAIN_22483 (protein, listed as Aotus trivirgatus)
chain: TQESLTLEDVAVEFSWEEWQLLDTAQKDLYRDVMVENYNHLVSLGYQTSKPDALSKLAHGQEPWMTDAKIQNKNCPGIRKV
B27: DOMAIN_22495 (protein, listed as Callorhinus ursinus)
chain: CEGLVSFEDVTMDFSREEWQQLDPAQRCLYWDVMLEIYSHLLSVGYHIPNPEIISRMEKGKKSWIRGAQLPHQRHREVVFG
B28: DOMAIN_25671 (protein, listed as Muntiacus reevesi)
chain: GLLSFEDVALYFTREEWDTLDWAQKALYRDVMLDNYRHIVSLGFPFPKPEVICQLEQWEEPWTLDLPRAGTRKASGSACPD
B29: DOMAIN_21277 (protein, listed as Aotus trivirgatus)
chain: PQDLMTFDDVAVEFTQWEWGQLNPAQKDLYREVMLENFRNLTLLGLLVSKPYMICQLEEGGEPFMVNTEISVGAHSDWERR
B30: DOMAIN_23018 (protein, listed as Colobus angolensis)
chain: AQMLVTFKDVAVTFTQEEWRQLDLTQRTLYREVMLETCGLLVSLGHRVPKPELVHLLEHGQELWTVKTGLSQPTCAGDRTQ
B31: DOMAIN_22778 (protein, listed as Saimiri boliviensis)
chain: SQGSVSFKDVTVDFTQEEWQQLDPAQKALYRDVMLENYCHFIAVGFHMTKPDMIRKLEQGEELWTQRIFPSYSYLEEDGKT
B32: DOMAIN_21909 (protein, listed as Suricata suricatta)
chain: AHHLVMFRDVAVDFSQDEWECLNSYQRNLYRDVILENYSNLVSVAGCSISKPDVITLLEQGREPWMVVRDERRRRTLDLES
B33: DOMAIN_22311 (protein, listed as Monodelphis domestica)
chain: AQEVVSFKDVAVDFTREEWRLLSPPQKELYKEVMLENARNLLSVGLSAPPEDMFSSLEQREAPWMLEKDDLRSCCPEGKMR
B34: DOMAIN_23331 (protein, listed as Carlito syrichta)
chain: LQELLSFEDLSVDFTQKEWQLLNPYQKNLYKDVMLENYSSLVSLGYEVIKPDVIFKLEQGEEPWIRDAEMPSSPSLEVWQV
B35: DOMAIN_731 (protein, listed as Pan paniscus)
chain: MAGEAEAQLDPSLQGLVMFEDVTVYFSREEWGLLNVTQKGLYRDVMLENFALVSSLGLAPSRSPVFTQLEDDEQSWVPSWV
B36: DOMAIN_749 (protein, listed as Pan paniscus)
chain: MGPQGARRQAFLAFGDVTVDFTQKEWRLLSPAQRALYREVTLENYSHLVSLGILHSKPELIRRLEQGEAPWGEERRRRPGP

Test system: HBEGF locus
Assay type: cell-based, human
Conditions: high-throughput screen of dXR repression of the HBEGF gene; abundance of each domain in the library before vs after diphtheria toxin selection; listed domains met p-value <0.01 and log2(fold change) >2

Compared with B1, B2 is higher in “Log2 (fold change)” value: 3.1529 for the first, 3.3575 for the second.

Going from B3 to B4, the “Log2 (fold change)” value falls from 2.5484 to 2.2996.

Going from B5 to B6, the “Log2 (fold change)” value falls from 3.6312 to 2.6042.

First: B7
Second: B8
The “Log2 (fold change)” value of the first is lower: 2.4075 for the first, 2.8609 for the second.

B9 and B10 are within 0.2 log units of each other in “Log2 (fold change)” value: 2.6133 for the first, 2.5048 for the second.

First: B11
Second: B12
The “Log2 (fold change)” value of the first is higher: 2.8635 for the first, 2.1811 for the second.

Compared with B13, B14 is higher in “Log2 (fold change)” value: 2.5621 for the first, 3.7951 for the second.

B15 and B16 are within 0.2 log units of each other in “Log2 (fold change)” value: 3.0632 for the first, 2.989 for the second.

Compared with B17, B18 is higher in “Log2 (fold change)” value: 2.3323 for the first, 3.0779 for the second.

First: B19
Second: B20
The “Log2 (fold change)” value of the first is lower: 3.0377 for the first, 3.4612 for the second.

First: B21
Second: B22
The “Log2 (fold change)” value of the first is higher: 3.8061 for the first, 3.1072 for the second.

First: B23
Second: B24
The “Log2 (fold change)” value of the first is higher: 3.6965 for the first, 3.2165 for the second.

Compared with B25, B26 is lower in “Log2 (fold change)” value: 2.9261 for the first, 2.1702 for the second.

Going from B27 to B28, the “Log2 (fold change)” value rises from 2.2623 to 3.5244.

First: B29
Second: B30
The “Log2 (fold change)” value of the first is lower: 2.7115 for the first, 3.4177 for the second.

B31 and B32 are within 0.2 log units of each other in “Log2 (fold change)” value: 3.1251 for the first, 3.2301 for the second.

B33 and B34 are within 0.2 log units of each other in “Log2 (fold change)” value: 2.9903 for the first, 2.8995 for the second.

Same assay, conditions: high-throughput screen of dXR repression of the HBEGF gene; change in abundance of each domain in the library before and after diphtheria toxin selection

Going from B35 to B36, the “Log2 (fold change)” value rises from 2.1318 to 3.1162.
